Consider 29 sequences from the supplement of paper PMC10567573.

± gives the standard deviation.

This series in a line: protein stability index of a GFP-peptide fusion (GPS, HEK-293T) (PSI 1-6); higher = more stable.
The mark [1] stands for this setting: treatment: DMSO, c terminus: a fixed tail appended.
[2] abbreviates: treatment: MLN4924 1 uM, 8 h, c terminus: a fixed tail appended.
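Note: 24-mer peptide tiles fused after GFP, lentivirally expressed, FACS-sorted into six equal bins by GFP/DsRed ratio, decoded by Illumina sequencing, PSI is the read-weighted mean bin number.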

For LHPLLSGRLGRWLRSTRFSGSLDR [PCDHGC5], the protein stability index is, setting by setting: under setting [1], 2.46 ± 0.23; under setting [2], 2.45 ± 0.54.

On to EAGYYFFNGNYKVDSPKNFNIAGT [ADAMTSL2], for which the protein stability index is, setting by setting: under setting [1], 2.34 ± 0.35; under setting [2], 2.44 ± 0.31.

TQQNRKLTDFYPVRRSSRKSKAEL [KMT5A] returned a protein stability index under setting [1] of 2.97 ± 0.89 and a protein stability index under setting [2] of 3.76 ± 0.29.

With EESASRQRFGEALQDQEKAWGFPE [ELOA2], the protein stability index reads like this: under setting [1], 5 ± 0.16; under setting [2], 5 ± 0.31.

As to LQKQGKYSGVGLLDHMVSIYLLI [RNF180], the protein stability index is, setting by setting: (treatment: DMSO, c terminus: native) 2.31 ± 0.92; (treatment: MLN4924 1 uM, 8 h, c terminus: native) 2.88 ± 0.81.

Consider SITHYRPVSASRSSLDLSYYPTSS [EMD], for which the protein stability index turned out to be 3 ± 0.26 under setting [1] and 3.23 ± 0.19 under setting [2].

For the sequence SDTYRCEERSPSFGEDYYGPSRSR [CLK3], the protein stability index is, setting by setting: under setting [1], 4.47 ± 0.12; under setting [2], 4.52 ± 0.2.

As for IKMILKMVQLDSIEDLEVTCTWKL [PRAME], the protein stability index was 2.89 ± 0.29 under setting [1] and 2.99 ± 0.42 under setting [2].

As for YNHQHKYFFLIGPPALLPLYFQWY [FADS1], the protein stability index was determined as 3.18 ± 0.66 under setting [1] and 2.38 ± 0.32 under setting [2].

NLFVMQVEMDIYTALKKWMFLQLV [GMCL1] came in with a protein stability index under setting [1] of 2.74 ± 0.66 and a protein stability index under setting [2] of 2.17 ± 0.39.

Take LGEVAYHDYHGILVDEEEKVLIQK [ADD1]: the protein stability index runs as follows: under setting [1], 4.9 ± 0.15; under setting [2], 4.74 ± 0.61.

As for RMPDEDSKIDHYVLEYRRTNFEGP [FSD1], the protein stability index was found to be 3.78 ± 0.19 under setting [1] and 3.79 ± 0.14 under setting [2].

For the sequence PHYPEYFQQPAPEYHQPQAPANVA [LOXL2], the protein stability index was 4.26 ± 0.2 under setting [1] and 4.2 ± 0.28 under setting [2].

CKCGECTAPRTLPSCLACNRQCLC [SPRY1] came in with a protein stability index under setting [1] of 4.05 ± 0.2 and a protein stability index under setting [2] of 4.04 ± 0.14.

Turning to YLYGILEERKNEMTQVITRTQEEK [TRIM55], the protein stability index came to 3.6 ± 0.15 under setting [1] and 3.55 ± 0.31 under setting [2].

Consider MKKIKKLENDTISKQLTLEQLRRE [CCDC6], for which the protein stability index by setting is: under setting [1], 3.71 ± 1.1; under setting [2], 3.84 ± 0.67.

HVIGEDAACIAYIRLTQYIDGQGR [CAMK2B] had a protein stability index under setting [1] of 2.15 ± 0.21 and a protein stability index under setting [2] of 2.08 ± 0.2.

For the sequence ASGPINFTMFLNLFGEKLSGTDAE [MYL5], the protein stability index reads like this: under setting [1], 2.58 ± 0.28; under setting [2], 2.6 ± 0.4.

Consider LLAEKEEKLQKEQKELQDVGQSLR [SASS6], for which the protein stability index worked out at 5.45 ± 0.23 under setting [1] and 5.35 ± 0.28 under setting [2].

Consider ITLFLLGAAKGKEVCYEDLGCFSD [PNLIPRP1], for which the protein stability index under setting [1] was 2.74 ± 0.43 and the protein stability index under setting [2] is 3.24 ± 0.43.

Turning to AFLRRVKTCNPPDAGPMVVHCSAG [PTPRD], the protein stability index by setting is: under setting [1], 2.15 ± 0.068; under setting [2], 2.18 ± 0.3.

AAPGKQPGRGHTHAAQGGPLLCPG [ELOA2] had a protein stability index under setting [1] of 4.09 ± 0.31 and a protein stability index under setting [2] of 4.31 ± 0.26.

RVSRKPTAAMRCMCPLYDPNRQLW [GAN] showed a protein stability index under setting [1] of 2.48 ± 0.67 and a protein stability index under setting [2] of 2.34 ± 0.47.

Take PKPAGGAIPTKKSLPSPSSSGHQN [FBF1]: the protein stability index by setting is: under setting [1], 4.98 ± 0.14; under setting [2], 4.92 ± 0.17.

As to GPNPSKLIQQFLTLRPDQQLHIFN [CDS2], the protein stability index stood at 2.16 ± 0.42 under setting [1] and 2.09 ± 0.25 under setting [2].

In turn, AFGWFRCSSCQRSWASAQVQILCH [RTP4] registered a protein stability index under setting [1] of 2.45 ± 0.37 and a protein stability index under setting [2] of 2.68 ± 0.54.

With PIGKISKNKKKKLKKKQKRQAELL [SRPK2], the protein stability index under setting [1] was found to be 4.37 ± 0.17.

For SRYLGDSGLDDFFLDIDTSAVEKE [SERTAD3], the protein stability index by setting is: under setting [1], 5.31 ± 0.12; under setting [2], 4.9 ± 0.55.

As to GDIHLSPEEPAASTDPNIVRKKER [TAF7L], the protein stability index is, setting by setting: under setting [1], 5.38 ± 0.32; under setting [2], 5.43 ± 0.27.
